The values that follow come from patent US9803013B2, “Biological materials and uses thereof” (BioInvent International AB, priority 2005, dated 2017).

Where two headings read alike, the source gives them in different places.

One data set concerns DU145 cells. The data set is described as follows: Apoptosis induction in carcinoma cells (cross-linked IgG, 16-24 hours, Annexin V/PI). Format: cell-based, human. As for the experimental part:
(§1) The prostate carcinoma cell line PC-3 was grown in Complete Growth Medium (RPMI 1640, supplemented with 10% FCS, 10 mM HEPES, and 2 mM L-Glutamine) to 80% confluency in a 6 well plate. The prostate carcinoma cell line DU145 was grown in MEM with Earl's salts, supplemented with 10% FCS, 1 mM sodium pyruvate, and 1 mM non-essential amino acids and the derivate of a melanoma cell line MDA MB 435 was grown in DMEM supplemented with 10% FCS.
For apoptosis assays cells were washed in PBS and serially diluted B11 IgG1 (or B1 IgG1, Trastuzumab or negative antibody control for controls) was added to individual wells and binding was allowed during a 1-2 h incubation at 4° C. The cells were washed and Complete Growth Medium was added, containing cross-linking antibody, Fab′2 Goat anti-Human Fab′2, at 10 μg/ml. Cells were incubated in a humidified atmosphere, with 5% CO2 at 37° C., for 16-24 hours. Cells were collected by trypsination and stained with Alexa Fluor 488-Annexin V (AF488-AV) and propidium iodide (PI), according to manufacturer's instructions. The percentage apoptotic cells was determined by the formula: % apoptotic cells=100−% AF488−AV/PI−/−.
Cells were seeded in 6 well plates with Complete Growth Medium three days before the onset of the experiment.

Data set [1] in a line: Single dose study in the rat (BI-505 pharmacokinetics). It counts as in vivo. The note with it: for tmax: iv. The source says: AUC0-tlast=area under the serum concentration-time curve from time zero to last quantifiable concentration; AUC0-∞=area under the serum concentration-time curve from time zero to infinity; Cmax=maximum observed serum concentration; tmax=time of maximum observed serum concentration; t1/2=apparent terminal elimination half-life; CL=total serum clearance; Vss=apparent volume of distribution at steady-state; Vz=apparent volume of distribution during the terminal elimination phase. There were six animals per sex and treatment group.
Rats (n=6 per sex and treatment, for a total of 36 rats) were given 0.5, 2.5 or 10 mg/kg BI-505 as a single i.v. treatment. Blood was drawn from the caudal vein of rats at the following time-points: pre-dose, 15 min, 30 min, 1 hr, 2 hr, 8 hr, 24 hr, 2 days, 3 days, 5 days, 8 days, 2 weeks and 3 weeks. BI-505 serum concentrations were determined by ELISA from 15-18 samples per time-point, collected from alternating animals. Pharmacokinetics was calculated from the individual animal serum concentration-time data of BI-505 using non-compartmental analyses. […]

For data set [2] the following is noted: mouse.
Experimental: Blood samples collected from the vena cava were centrifuged at 2500 g for 15 min to obtain serum and the samples were stored at −20° C.
Sera were prepared from blood samples collected from the vena saphena from 3 animals in each group at different time-points during the course of in vivo experimentation. Briefly, ELISA plates were coated over night with human ICAM-1 protein. The following day, plates were incubated with the serum samples. Biotinylated goat-anti-BI-505 was used for detection of BI-505 in the serum samples. Sera were analysed by ELISA to determine BI-505 trough levels. Trough BI-505 serum concentrations were then plotted as a function of dose and were fitted using five parameter log-log curve and XLfit software (IDBS, Guildford, United Kingdom).
For the next data set, the system named is RPMI-8226 myeloma tumors. Nature of the data set: Established RPMI-8226 tumors in SCID mice with macrophage or NK cell depletion. Format: in vivo, mouse. The text has this:
Fc-FcγR-interactions, in addition to enhancing antibody induced negative signalling and tumor PCD (Wilson et al., 2011), may involve both innate and adaptive arms of cellular immunity (Alduaij and Illidge, 2011; Park et al., 2010). Different approaches to assess the role of NK cells and macrophages were used—two principal cell types capable of conferring FcγR dependent antitumor effects—for BI-505 therapeutic activity; Firstly, the relative abundance of these cell types in tumor tissue harvested from BI-505 or control antibody treated mice were examined. […] In contrast, very few intratumoral NK cells could be detected (CD49b^+ CD31^− cells). […] To verify this macrophages or NK cells were depleted, using clodronate liposomes and anti-asialo antibodies respectively, from SCID mice bearing established RPMI-8226 myeloma tumors and examined the effect on BI-505 anti-myeloma activity. A period of three weeks of macrophage and NK cell depletion was chosen as read out since this was the longest time-period where neither treatment affected animal well-being. […] Tumors of macrophage depleted BI-505 treated mice had doubled in size compared with tumors from animals receiving BI-505 treatment alone (VBI-505=95±39 mm^3, VBI-505+clodro=189±94 mm^3, p<0.001), but were similarly sized compared to tumors from control antibody treated mice (Vctrl IgG=198±90 mm^3, p>0.05). NK cell depletion, in contrast, had little or no effect on BI-505 antitumor activity. […]
Treatment with antibodies by intraperitoneal injection started either 1 day after cell inoculation (prophylactic model) or when tumors reached approximately 100 mm^3 (established model). […] Macrophage and NK cell depletion was assessed upon termination of tumor bearing mice exposed to effector cell depleting agents (see above), spleens were removed and splenocytes isolated by mincing through a cell strainer (70 μm nylon mesh, BD Falcon 352350), erythrocytes were removed by lysis according to manufacturer (BD Pharm Lyse 555899, BD Biosciences). […]

The test system of another data set is PC-3 cells. Nature of the data set: Apoptosis induction in carcinoma cells (cross-linked IgG, 16-24 hours, Annexin V/PI). It counts as cell-based, human. The note with it: PC-3, cross-linked IgG. The procedure: as §1
For apoptosis assays cells were washed in PBS and serially diluted B11 IgG1 (or B1 IgG1, Trastuzumab or negative antibody control for controls) was added to individual wells and binding was allowed during a 1-2 h incubation at 4° C. The cells were washed and Complete Growth Medium was added, containing cross-linking antibody, Fab′2 Goat anti-Human Fab′2, at 10 μg/ml. Cells were incubated in a humidified atmosphere, with 5% CO2 at 37° C., for 16-24 hours. […] The percentage apoptotic cells was determined by the formula: % apoptotic cells=100−% AF488−AV/PI−/−.
Cells were seeded in 6 well plates with Complete Growth Medium three days before the onset of the experiment. […] Cells were washed in ice-cold PBS, subjected to Annexin V/propidium iodide staining, and analysed for viability/apoptosis as described in example 5 above.

B1: B11: fully human IgG1 antibody specific for ICAM-1; VH and VL sequences of FIG. 10 (SEQ ID NOs. 6 and 8) (antibody, listed as Homo sapiens, V domains shown)
VH: EVQLLESGGGLVQPGGSLRLSCAASGFTFSNAWMSWVRQAPGKGLEWVAFIWYDGSNKYYADSVKGRFTISRDNSKNTLYLQMNSLRAEDTAVYYCARYSGWYFDYWGQGTLVTVSS
VL: QSVLTQPPSASGTPGQRVTISCTGSSSNIGAGYDVHWYQQLPGTAPKLLIYDNNNRPSGVPDRFSGSKSGTSASLAISGLRSEDEADYYCQSYDSSLSAWLFGGGTKLTVLG
Usually Cmax stands for the maximum level reached in the sampled fluid or tissue. A word on the half-life: it is how long it takes for the measured level to halve. Read a low half-life as fast loss. Turning to B1, the “Apoptosis Induction” value in the data set on DU145 cells and in the data set on PC-3 cells was “induce apoptosis” each time. For the same molecule, in data set [1] (Males, 10 mg/kg single IV), the Cmax was found to be 281 µg/mL. For the same molecule, in data set [1] (in vivo), the “anti-BI-505 antibodies” value is given as “no anti-BI-505 antibodies were detected”. This molecule yielded a half-life in data set [1] (in vivo) of 12 to 13 days. Further, in data set [1] (in vivo), the “half-life corresponding in man” value was 2-3 weeks. Moreover, the tmax in data set [1] (in vivo, 0.5 mg/kg) amounted to 15 min; in data set [1] (in vivo, 10 mg/kg), 30 min. For the same molecule, the results for the “In vivo serum concentrations” value in data set [2] (0.02 mg/kg), in data set [2] (0.2 mg/kg) and in data set [2] (2 mg/kg) were 0.06 ± 0.02 µg/mL, 1.2 ± 0.4 µg/mL and 20 ± 2.9 µg/mL, respectively. The tumor volume in the data set on RPMI-8226 myeloma tumors (BI-505 treatment alone, three weeks) is listed as 95±39 mm^3; with RPMI-8226 myeloma tumors (NK cell depleted (anti-asialo) BI-505 treated mice) it was 130±53 mm^3; in the data set with RPMI-8226 myeloma tumors (macrophage depleted (clodronate liposomes) BI-505 treated mice), 189±94 mm^3.
